According to article PMC11053944, “FRET Assays for the Identification of C. albicans HSP90-Sba1 and Human HSP90α-p23 Binding Inhibitors” (Pharmaceuticals, 2024):
Entries after “also recorded” stand apart in the source; their conditions may differ.

B1: Aha1: C. albicans co-chaperone Aha1, activator of HSP90 ATPase (A0A1D8PU72); yeast Aha1 in cited values (protein)
chain: MVVNNPNNWHWVDKNCLPWSVDYFKDKLINLKVTDGTNNVHISEVSSVEGDVDVSQRKGKVISLFDIKIVLTFKGNTAKDDNVSGSITIPELTYDSEVDGLQFDISIYNETAENSGITDLIKKQLIPQLRTALMKFGPDLIEINSKDIQLSQDKVTSTYTKANQSSTIAATADHPKSESKPVEKKTETHSTSNIARKVVSEKDSSTVPKYNTTTLHLEPSFNTSAEQIYLTLLDEARIGAWTRSAPVIEKFPPKEGSEFKFFGGSVSGKFLKLVPNEQIVELWRLDDWKAGHFAQLDMKLVQSSGETKLVVKFSGIPIGEEERVKNNFEERYIRSIKITFGFGAVL
modifications: left off: His6, N-terminal, state not stated
notes: yeast Aha1 in cited values
B2: Sba1: unlabeled C. albicans HSP90 co-chaperone Sba1 (UniProtKB A0A1D8PQ94), His6-tagged; yeast Sba1 in cited values (protein)
chain: MSSTTTQTPTVLWAQRSSEDDAAKNIIYLTIQISDPIDLKIDLKSDHLIIDSKSNDSVYSSIDYHLQIDFFKEIDPDQSKINTENGSHIFMILRKKDQQEEYWPRLTKEKLKYHYIKTDFDKWVDEDEQDEVKDDPNDFGGPGGPGGAMDFSQMLSGMGGLGGAGGSGGPGGVDLSALASQLGQAGGAGGAAGLDGEEGEEGEAEAKEAQEESNTTATEKE
modifications: left off: His6, N-terminal, state not stated
notes: unlabeled C. albicans HSP90 co-chaperone Sba1 (UniProtKB A0A1D8PQ94), His6-tagged; yeast Sba1 in cited values

Key:
C. albicans HSP90 = target: T1, C. albicans HSP90 (Candida albicans, UniProt P46598); assay: ADP-Glo assay, HSP90 ATPase activity; format: biochemical; conditions: HSP90 2.5 µM, 1 mM ATP, 1 h 30 °C; Aha1 alone: up to, at 8-fold molar excess; co-incubation: 20 µM each
T1 construct: made in house; host or cells: E. coli BL21(DE3)
Method: The ADP-Glo™ assay (Promega GmbH, Waldorf, Germany) was performed according to the manufacturer’s protocol. […] The reaction mixture was incubated for 1 h at 30 °C. After 5 min re-tempering to room temperature, 5 µL of ADP-Glo reagent was added to the samples to terminate the kinase reaction and deplete the remaining ATP for 40 min at room temperature. Afterward, 10 µL Kinase Detection Reagent was added to convert the generated ADP back to ATP. In that way, synthesized ATP was measured in a luciferase/luciferin reaction. Luminescence was detected with an Infinite M200 Pro (Tecan, Männedorf, Switzerland) in a 384-well microtiter plate (Art. No. 781075, Greiner Bio-One GmbH, Frickenhausen, Germany) after 40 min for 100 µM ATP samples, or 60 min for 1 mM ATP samples. The luminescence intensity of the sample containing only HSP90 was set to 100%, and the luminescence intensities of the other samples were related to it.

S. cerevisiae HSP90 = conditions: cited from earlier work
[1] = target: T2, C. albicans HSP90-mNeonGreen–Sba1-mScarlet-I binding (Candida albicans, UniProt P46598, E36A); conditions: 20 µM added; 1 µM HSP90-mNeonGreen, 2 µM Sba1-mScarlet-I, 5 mM ATP
T2 construct: made in house; host or cells: E. coli BL21(DE3)
Method: In this investigation, 1 µM HSP90-mNeonGreen was incubated with 2 µM Sba1-mScarlet-I in reaction buffer containing 5 mM ATP either alone (UC) or with the addition of 20 µM Sba1. As a negative control, samples containing 20 µM bovine serum albumin (BSA) were used.
FRET experiments were carried out in 384-well microtiter plates (Art. No. 3766 Corning, NY, USA, or Art. No. 781906, Greiner Bio-One GmbH, Frickenhausen, Germany) containing a final volume of 20 µL and measured with a microplate reader Infinite M200Pro (Tecan, Männedorf, Switzerland). The fluorescence was measured in three channels: excitation (ex.): 488 nm/emission (em.): 525 nm (mNeonGreen fluorescence), ex.: 561 nm/em.: 610 nm (mScarlet-I fluorescence) and the FRET channel ex.: 488 nm/em.: 610 nm. The excitation and emission bandwidths were set to 9 and 20 nm, respectively. Experiments for the determination of the equilibrium dissociation constants were performed with a filter-based microplate reader Infinite F200Pro (Tecan, Männedorf, Switzerland). The fluorescence was measured in three channels using the following filters: ex.: 485 ± 20 nm/em.: 535 ± 20 nm (mNeonGreen channel), ex.: 535 ± 20 nm/em.: 612 ± 10 nm (mScarlet-I channel) and the FRET channel ex.: 485 ± 20 nm/em.: 612 ± 10 nm. […]

[2] = target: T3, C. albicans HSP90–Sba1 binding (Candida albicans, UniProt P46598); assay: FRET inhibitor screening assay, C. albicans HSP90-Sba1 binding; conditions: 10 or 100 µM (Sba1 20 µM), triplicates, 3 mM ATP, 1% DMSO, 15 min 30 °C
T3 construct: made in house; host or cells: E. coli BL21(DE3)
Text: We used the Z′ factor (Z′) to optimize the FRET assays for screening purposes. Z′ represents a simple statistical parameter for the quality assessment and optimization of HTS assays and screening assays in general. It is a measure that determines the degree of signal separation between binding and non-binding data sets. Calculation of the Z′ factor is based on the standard deviation of the individual data sets as well as their general signal separation. Values ≥ 0.5 can be classified as excellent for screening purposes. […] Consequently, the fluorescence intensity of the donor decreases (FLDD). […] To obtain an informative Z′ value, we calculated it based on at least three independent experiments amounting to 144 samples for both binding and non-binding control data sets (Figure 4B,E). […] We defined the ‘hit threshold’ as a decrease in readout signal of more than 3 standard deviations (SDs) from the mean signal of the binding control. […]
FRET experiments were carried out in 384-well microtiter plates (Art. No. 3766 Corning, NY, USA, or Art. No. 781906, Greiner Bio-One GmbH, Frickenhausen, Germany) containing a final volume of 20 µL and measured with a microplate reader Infinite M200Pro (Tecan, Männedorf, Switzerland). […] Experiments for the determination of the equilibrium dissociation constants were performed with a filter-based microplate reader Infinite F200Pro (Tecan, Männedorf, Switzerland). […]

T3 sequence (P46598 whole entry): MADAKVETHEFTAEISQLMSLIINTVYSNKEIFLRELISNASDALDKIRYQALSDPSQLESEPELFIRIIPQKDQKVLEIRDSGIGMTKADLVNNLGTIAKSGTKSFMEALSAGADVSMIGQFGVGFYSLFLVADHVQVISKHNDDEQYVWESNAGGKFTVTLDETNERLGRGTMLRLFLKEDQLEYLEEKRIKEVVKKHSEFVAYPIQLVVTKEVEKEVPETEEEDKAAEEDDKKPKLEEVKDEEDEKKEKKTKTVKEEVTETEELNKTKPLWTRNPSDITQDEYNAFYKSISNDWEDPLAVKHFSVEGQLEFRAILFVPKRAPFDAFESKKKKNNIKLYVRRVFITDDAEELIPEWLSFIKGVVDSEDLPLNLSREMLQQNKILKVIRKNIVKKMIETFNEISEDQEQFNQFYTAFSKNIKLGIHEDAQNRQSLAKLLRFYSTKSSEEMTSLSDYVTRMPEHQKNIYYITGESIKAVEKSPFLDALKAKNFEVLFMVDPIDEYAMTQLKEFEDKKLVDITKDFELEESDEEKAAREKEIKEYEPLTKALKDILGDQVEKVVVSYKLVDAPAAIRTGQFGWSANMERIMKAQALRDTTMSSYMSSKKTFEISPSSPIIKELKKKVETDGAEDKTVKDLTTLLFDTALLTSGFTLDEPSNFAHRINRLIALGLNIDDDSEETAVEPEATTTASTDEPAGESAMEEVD
T1 sequence (P46598 whole entry): as above

Molecule	increase in HSP90 ATPase activity (C. albicans HSP90)	stimulation in ATPase activity (S. cerevisiae HSP90; up to, 5–10-fold molar excess Aha1/HSP90, ref 32 (Wolmarans et al.))	effect on FRET emission (EmFRET) versus untreated control [1]	hit identification (EmFRET/FLDD decrease of more than 3 SDs from binding control mean) [2]	ATPase activity, % of initial value in the absence of Sba1 (S. cerevisiae HSP90; decrease to up)
B1	7 fold	~ 20 fold	–	–	–
B2	–	–	significant reduction in FRET emission	identified as disrupting; also recorded: identified as hits	50%
